Tests used:
Experiment in all cases: EMSA
MeCP2 MBD (Homo sapiens) = MeCP2 MBD (Homo sapiens) (UniProt P51608); conditions: EMSA: 20 mM HEPES pH 7.5, 75 mM NaCl, 125 mM KCl, 50 uM EDTA, 2.5 mM beta-mercaptoethanol, 5% glycerol, BSA, 1.58 uM 47 bp competitor DNA (absent in free DNA …)
[1] = molecular target: MeCP2 full-length, e2 isoform (Homo sapiens) (UniProt P51608); conditions: EMSA: 20 mM HEPES pH 7.5, 75 mM NaCl, 125 mM KCl, 50 uM EDTA, 2.5 mM beta-mercaptoethanol, 5% glycerol, BSA, 1.58 uM 47 bp competitor DNA (absent in free DNA …)
[2] = molecular target: MeCP2 R133G R133G (Homo sapiens) (UniProt P51608); conditions: apparent, competitor DNA, EMSA: 20 mM HEPES pH 7.5, 75 mM NaCl, 125 mM KCl, 50 uM EDTA, 2.5 mM beta-mercaptoethanol, 5% glycerol, BSA, 1.58 uM 47 bp competitor DNA (absent in free DNA …)
[3] = molecular target: HisMBP-MeCP2 162-309 (Homo sapiens) (UniProt P51608); conditions: apparent, competitor DNA, EMSA: 20 mM HEPES pH 7.5, 75 mM NaCl, 125 mM KCl, 50 uM EDTA, 2.5 mM beta-mercaptoethanol, 5% glycerol, BSA, 1.58 uM 47 bp competitor DNA (absent in free DNA …)
[4] = molecular target: MeCP2 full-length, e2 isoform;histone H1.0;histone octamer H2B T115C;H3.1 C96S;C110A (Homo sapiens;Homo sapiens;) (UniProt P51608+P07305+P0C0S8+P62807+P68431+P62805); conditions: 20 mM HEPES pH 7.5, 75 mM NaCl, 125 mM KCl, 50 uM EDTA, 2.5 mM beta-mercaptoethanol, 5% glycerol, BSA, 1.58 uM 47 bp competitor DNA (nucleosome assays), absent …, low values mean tight binding
[5] = molecular target: MeCP2 AT-DIRmut R188G;R190G;K254N;K256N;R268Q (Homo sapiens) (UniProt P51608); conditions: apparent, competitor DNA, EMSA: 20 mM HEPES pH 7.5, 75 mM NaCl, 125 mM KCl, 50 uM EDTA, 2.5 mM beta-mercaptoethanol, 5% glycerol, BSA, 1.58 uM 47 bp competitor DNA (absent in free DNA …)
[6] = molecular target: MeCP2 AT-DIRmut;histone octamer R188G;R190G;K254N;K256N;R268Q|H2B T115C;H3.1 C96S;C110A (Homo sapiens;) (UniProt P51608+P0C0S8+P62807+P68431+P62805); conditions: 20 mM HEPES pH 7.5, 75 mM NaCl, 125 mM KCl, 50 uM EDTA, 2.5 mM beta-mercaptoethanol, 5% glycerol, BSA, 1.58 uM 47 bp competitor DNA (nucleosome assays), absent …, low values mean tight binding
[7] = molecular target: MeCP2 full-length, e2 isoform;histone octamer H2B T115C;H3.1 C96S;C110A (Homo sapiens;) (UniProt P51608+P0C0S8+P62807+P68431+P62805); conditions: 20 mM HEPES pH 7.5, 75 mM NaCl, 125 mM KCl, 50 uM EDTA, 2.5 mM beta-mercaptoethanol, 5% glycerol, BSA, 1.58 uM 47 bp competitor DNA (nucleosome assays), absent …, low values mean tight binding
[8] = molecular target: MeCP2 MBD;histone octamer H2B T115C;H3.1 C96S;C110A (Homo sapiens;) (UniProt P51608+P0C0S8+P62807+P68431+P62805); conditions: 20 mM HEPES pH 7.5, 75 mM NaCl, 125 mM KCl, 50 uM EDTA, 2.5 mM beta-mercaptoethanol, 5% glycerol, BSA, 1.58 uM 47 bp competitor DNA (nucleosome assays), absent …, low values mean tight binding
[9] = meCpG at +83, -61, -80 bp from dyad

ATGGAACACATTGCACAGGATGTATATATCTGACACGTGCCTGGAGACTAGGGAGTAATCCCCTTGGCGGTTAAAACGCGGGGGACAGCGCGTACGTGCGTTTAAGCGGTGCTAGAGCTGTCTACGACCAATTGAGCGGCCTCGGCACCGGGATTCTCCAGGGCGGCCGCGTATT (double strand) [15-N601-15 nucleosome unmethylated]
Kd (MeCP2 MBD (Homo sapiens)): 1 µM
Kd [1]: 0.221 µM
Kd [2]: 0.596 µM
Kd [3]: 0.24 µM

GAGCCACAAAATCACCGACGCTCACGGGTGCCCAGTTCGCGCGCCCACCTACCGTGTGAAGTCGTCACTCGGGCTTCTAAGTACGCTTAGCGCACGGTAGAGCGCAATCCAAGGCTAACCACCGTGCATCGATGTTGAAAGAGGCCCTCCGTCCTTATTACTTCAAGTCCCTGGGGTACCCGTTTCACTGCCA (double strand) [16-N603-30 nucleosome 91 meCpA]
Kd (MeCP2 MBD (Homo sapiens); asymmetric meCpA at 91): 0.0857 µM
Kd ([1]; asymmetric meCpA at 91): 0.0571 µM
Kd ([2]; asymmetric meCpA at 91): 0.162 µM
Kd ([3]; asymmetric meCpA at 91): 0.103 µM

GAGCCACAAAATCACCGACGCTCACGGGTGCCCAGTTCGCGCGCCCACCTACCGTGTGAAGTCGTCACTCGGGCTTCTAAGTACGCTTAGCGCACGGTAGAGCGCAATCCAAGGCTAACCACCGTGCATCGATGTTGAAAGAGGCCCTCCGTCCTTATTACTTCAAGTCCCTGGGGTACCCGTTTCACTGCCA (double strand) [16-N603-30 nucleosome unmethylated]
Kd (MeCP2 MBD (Homo sapiens)): 0.716 µM
Kd [1]: 0.0949 µM
Kd [2]: 0.188 µM
Kd [3]: 0.0946 µM

GCTTCACCTCGTGACCCAAGCGACACCGGCACTGGGACAGGATGTATATATGTGACACGTGCCTGGAGACTAGGGAGTAATCCCCTTGGCGGTTAAAACGCGGGGGACAGCGCGTACGTGCGTTTAAGCGGTGCTAGAGCTGTCTACGACCAATTGAGCGGCCTCGGCACCGGGATTCTCCAGGGGATCCGGCATCATGGTCTAGAGCG (double strand) [37-N601-27 nucleosome 3x meCpG]
Kd [4, 9]: 0.046 µM
Kd [5, 9]: 0.0425 µM
Kd [6, 9]: 0.0425 µM
Kd (MeCP2 MBD (Homo sapiens); [9]): 0.0679 µM
Kd [7, 9]: 0.0375 µM
Kd [8, 9]: 0.0679 µM
Kd ([1]; apparent, H1.0 prebound (chromatosome), competitor DNA, meCpG at +83, -61, -80 bp from dyad): 0.046 µM
Kd [1, 9]: 0.0375 µM

GCTTCACCTCGTGACCCAAGCGACACCGGCACTGGGACAGGATGTATATATGTGACACGTGCCTGGAGACTAGGGAGTAATCCCCTTGGCGGTTAAAACGCGGGGGACAGCGCGTACGTGCGTTTAAGCGGTGCTAGAGCTGTCTACGACCAATTGAGCGGCCTCGGCACCGGGATTCTCCAGGGGATCCGGCATCATGGTCTAGAGCG (double strand) [37-N601-27 nucleosome -1 meCpG]
Kd ([4]; meCpG at -1 (GACAGCGCGTAC)): 0.0804 µM
Kd ([5]; meCpG at -1 (GACAGCGCGTAC)): 0.119 µM
Kd ([6]; meCpG at -1 (GACAGCGCGTAC)): 0.119 µM
Kd (MeCP2 MBD (Homo sapiens); meCpG at -1 (GACAGCGCGTAC)): 0.234 µM
Kd ([7]; meCpG at -1 (GACAGCGCGTAC)): 0.0721 µM
Kd ([8]; meCpG at -1 (GACAGCGCGTAC)): 0.234 µM
Kd ([1]; apparent, H1.0 prebound (chromatosome), competitor DNA, meCpG at -1 (GACAGCGCGTAC)): 0.0804 µM
Kd ([1]; meCpG at -1 (GACAGCGCGTAC)): 0.0721 µM

GCTTCACCTCGTGACCCAAGCGACACCGGCACTGGGACAGGATGTATATATGTGACACGTGCCTGGAGACTAGGGAGTAATCCCCTTGGCGGTTAAAACGCGGGGGACAGCGCGTACGTGCGTTTAAGCGGTGCTAGAGCTGTCTACGACCAATTGAGCGGCCTCGGCACCGGGATTCTCCAGGGGATCCGGCATCATGGTCTAGAGCG (double strand) [37-N601-27 nucleosome unmethylated]
Kd [4]: 0.165 µM
Kd [6]: 0.167 µM
Kd (MeCP2 MBD (Homo sapiens)): 0.279 µM
Kd [7]: 0.137 µM
Kd [8]: 0.279 µM
Kd [1]: 0.137 µM
Kd ([1]; apparent, H1.0 prebound (chromatosome), competitor DNA): 0.165 µM

From PMC13276077
